Consider 1 substance from publication PMC10540051.

pKd: −log10 of the molar value.

The target of the experiment is purified extracellular moiety of SorCS1 (UniProt Q8WY21). The experiment in a line: SPR; BIAcore 3000, CM5 chip; extracellular moiety of SorCS1 immobilised at about 50 fmol/mm^2; mature BDNF (50–200 nM) injected at 5 μl/min in 10 mM Hepes, 150 mM NaCl, 1.5 mM CaCl2, 1 mM EGTA, 0.005% Tween-20, pH 7.4; Langmuir 1:1 model.
Sequence of UniProt Q8WY21 (Q8WY21 34-1099): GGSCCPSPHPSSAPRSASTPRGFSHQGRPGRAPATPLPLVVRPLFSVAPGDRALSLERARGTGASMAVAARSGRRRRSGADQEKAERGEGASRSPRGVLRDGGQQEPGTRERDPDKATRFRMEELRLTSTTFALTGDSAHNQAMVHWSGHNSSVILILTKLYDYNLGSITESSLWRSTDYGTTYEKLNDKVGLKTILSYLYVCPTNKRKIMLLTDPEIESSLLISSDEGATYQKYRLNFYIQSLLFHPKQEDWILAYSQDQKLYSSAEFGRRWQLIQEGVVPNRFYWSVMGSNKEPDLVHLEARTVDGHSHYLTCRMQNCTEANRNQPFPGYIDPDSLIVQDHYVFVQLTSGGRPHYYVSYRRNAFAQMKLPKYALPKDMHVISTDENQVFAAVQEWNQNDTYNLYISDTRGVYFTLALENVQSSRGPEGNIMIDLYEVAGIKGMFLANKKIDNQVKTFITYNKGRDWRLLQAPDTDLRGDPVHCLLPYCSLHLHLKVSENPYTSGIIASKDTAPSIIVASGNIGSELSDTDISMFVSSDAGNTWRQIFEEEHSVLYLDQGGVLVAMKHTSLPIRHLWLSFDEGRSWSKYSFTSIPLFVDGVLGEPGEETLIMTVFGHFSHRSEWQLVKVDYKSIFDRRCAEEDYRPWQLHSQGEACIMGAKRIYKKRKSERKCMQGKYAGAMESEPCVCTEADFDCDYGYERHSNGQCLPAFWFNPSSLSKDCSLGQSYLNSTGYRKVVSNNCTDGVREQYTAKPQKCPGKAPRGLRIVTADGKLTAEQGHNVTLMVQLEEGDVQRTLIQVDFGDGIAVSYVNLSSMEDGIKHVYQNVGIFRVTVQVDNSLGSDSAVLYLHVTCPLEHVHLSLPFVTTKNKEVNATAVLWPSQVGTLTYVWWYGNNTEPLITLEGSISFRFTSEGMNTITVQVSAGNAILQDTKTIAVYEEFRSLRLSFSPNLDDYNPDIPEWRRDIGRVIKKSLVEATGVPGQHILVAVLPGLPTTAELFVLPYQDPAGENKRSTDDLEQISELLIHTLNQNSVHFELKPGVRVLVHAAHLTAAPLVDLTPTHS

For the substance mature BDNF (ligand), the negative logarithm of the Kd (pKd) (usually the Kd on a negative log10 scale, so that one unit is a factor of ten) was 7.22.
